# According to US8440629B2, “Cyclic receptor-associated protein (RAP) peptides” (Raptor Pharmaceuticals Inc., priority 2007, dated 2013):
# Substitutions are numbered along the chain they refer to. Numbers in names are those of the source.
# T1: LRP2 CR89 V1047D (YDWR) (Homo sapiens, UniProt P98164, V1048D)
# T1 construct: two CR pairs from LRP2 (CR89, CR3435); made in house; host or cells: E. coli BL21(DE3) CodonPlus-RIPL, pET30(+)a
# T1 sequence (P98164 1022-1105 V1048D limits assumed): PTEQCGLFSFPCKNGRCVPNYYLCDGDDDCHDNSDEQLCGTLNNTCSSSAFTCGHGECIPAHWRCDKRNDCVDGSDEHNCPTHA
# T2: LRP2 CR89 V1047D R1088D (YDWD) (Homo sapiens, UniProt P98164, R1089D/V1048D)
# T2 construct: two CR pairs from LRP2 (CR89, CR3435); made in house; host or cells: E. coli BL21(DE3) CodonPlus-RIPL, pET30(+)a
# T2 sequence (P98164 1022-1105 V1048D/R1089D limits assumed): T1 sequence (P98164 1022-1105 V1048D limits assumed) with R68D
# T3: LRP2 CR89 Y1042W (WVWR) (Homo sapiens, UniProt P98164, Y1043W)
# T3 construct: two CR pairs from LRP2 (CR89, CR3435); made in house; host or cells: E. coli BL21(DE3) CodonPlus-RIPL, pET30(+)a
# T3 sequence (P98164 1025-1102 Y1043W): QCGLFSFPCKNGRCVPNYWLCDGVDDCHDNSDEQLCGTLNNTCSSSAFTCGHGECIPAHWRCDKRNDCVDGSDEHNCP
# B1: RAP d3: third domain of human RAP, amino acids 201-319 of mature RAP, bacterially expressed with hexahistidine and S-peptide tags (SEQ ID NO: 92) (protein, listed as Homo sapiens)
# chain: LDRLRRVSHQGYSTEAEFEEPRVIDLWDLEQSANLTDKELEAFREELKHFEAKIEKHNHYQKQLEIAHEKLRHAESVGDGERVSRSREKHALLEGRTKELGYTVKKHLQDLSGRISRAR
# modifications: hexahistidine and S-peptide tags
# B2: MegaRAP1 d3: d3 of RAP variant selected on LRP2 CR89: S213T, E217K, H249Y, E251K, K256A, K270E (SEQ ID NO: 93) (protein, listed as Homo sapiens)
# chain: B1 chain with E51K, K56A, K70D
# Key:
# LRP2 CR34-36 = target: T4, LRP2 CR34-36 (Homo sapiens, UniProt P98164); experiment: Solid phase binding assay; details: highest ligand concentrations tested
# T4 construct: a CR triplet from LRP2 (CR34-36); made in house; host or cells: E. coli BL21(DE3) CodonPlus-RIPL, pET30(+)a
# T4 sequence (P98164 3838-3974 limits assumed): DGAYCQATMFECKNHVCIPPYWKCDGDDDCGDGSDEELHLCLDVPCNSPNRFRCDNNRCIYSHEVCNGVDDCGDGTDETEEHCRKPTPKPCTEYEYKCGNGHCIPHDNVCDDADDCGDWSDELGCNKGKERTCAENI
# Description: All expression constructs were sequenced to verify insert sequences and the junctions with the expression vector. Each plasmid was then used to transform BL21(DE3) CodonPlus-RIPL™ cells (Stratagene). Expression of the CR proteins was induced in logarithmic growth-phase cells grown in LB supplemented with 34 μg/mL chloramphenicol, 12.5 μg/mL tetracycline and 15 μg/mL kanamycin by addition of 2 mM IPTG, followed by reduction in incubator temperature to 32° C. and incubation for 4 hours with agitation at […]. Cells were pelleted and resuspended, at 3.5% of the initial culture volume in 10 mM Tris-HCl pH 8, 100 mM NaH2PO4, 8M Urea. Resuspended cells were then frozen in liquid nitrogen, rapidly thawed to 37° C. and sonicated for 10 seconds at an amplitude setting of 60 using a Cole-Parmer CP-130 ultrasonic processor connected to a 3 mm probe. This procedure was repeated three times to effect complete lysis of the cells. Lysates were clarified by spinning twice at 10,000×g in a Sorvall RC-5 centrifuge for 20 minutes at 15° C. Ni-NTA columns (Qiagen Superflow™, 1.5 mL packed bed) were used to purify the CR proteins. Briefly, the resin was equilibrated with two column volumes of lysis buffer. The clarified lysate was then supplemented to 20 mM with imidazole and incubated with the equilibrated Ni-NTA resin overnight at 4° C. The flow-through was discarded. Columns were washed once with one column volume of lysis buffer and then three times with one column volume of TBS pH 8 supplemented with 20 mM imidazole. CR-loaded beads were then removed from the column and CR proteins eluted by incubating at room temperature for 30 minutes with one column volume of the same buffer containing 200 mM imidazole. This step was repeated once and the eluates pooled. Eluted CR protein solutions were then supplemented to 2 M urea, 10 mM CaCl2 and 5 mM DTT. Purified, denatured CR protein solutions were transferred to 3,500 MWCO Slide-A-Lyzer™ (Pierce) cassettes and sequentially dialyzed against a 200-fold excess of 50 mM Tris-HCl pH 8.5, 10 mM CaCl2, 1 mM reduced glutathione, 0.5 mM oxidized glutathione at room temperature overnight and then against TBS supplemented with 5 mM CaCl2 at 4° C. overnight. Protein concentrations were determined by Bradford assay and purity confirmed by SDS-PAGE with Coomassie Brilliant Blue staining.
# (§1) Purified, refolded CR protein (1 μg) was bound to Nunc Maxisorp™ 96-well plates in TBS pH 8 supplemented with 5 mM CaCl2 (TBSC) overnight at 4° C. Wells were washed with TBSC and then blocked with TBSC containing 2% bovine serum albumin (BSA). RAP ligands were then incubated with the immobilized receptor at a range of concentrations for 2 hours in the above blocking buffer supplemented with 0.05% Tween-20 at room temperature. Control wells contained no added ligand. As an additional control, to determine whether the absence of calcium affected binding, 10 mM EGTA was included in the incubation medium for some samples. Wells were washed with TBSTC and bound ligands detected with polyclonal anti-RAP (BP41/42, 1:1,000, BioMarin). Excess primary antibody was removed and wells washed before incubation with the secondary antibody, HRP-conjugated goat anti rabbit IgG (Bio-Rad). After washing, TMB substrate solutions (Bio-Rad) were added to detect HRP. Color development was stopped with 1N HCl. Absorption at 450 nm was measured with a microplate spectrophotometer (Molecular Devices). Data were plotted and Kd values derived by non-linear regression with the assumption of single-site binding (GraphPad Prism).
# LRP2 CR89 R1088D (YVWD) = target: T5, LRP2 CR89 R1088D (YVWD) (Homo sapiens, UniProt P98164, R1089D); experiment: Solid phase binding assay, LRP2 CR89 mutant
# T5 construct: two CR pairs from LRP2 (CR89, CR3435); made in house; host or cells: E. coli BL21(DE3) CodonPlus-RIPL, pET30(+)a
# T5 sequence (P98164 1022-1105 R1089D limits assumed): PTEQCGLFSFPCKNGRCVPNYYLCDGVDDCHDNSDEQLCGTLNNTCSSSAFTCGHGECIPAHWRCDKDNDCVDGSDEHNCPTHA
# Description: (§2) Each amplified fragment was sequentially digested with BamHI and HindIII and then ligated into similarly digested pET30(+)a. The resulting plasmids encode proteins consisting of N-terminal hexahistidine and S-peptides fused to the CR fragment. Ligation reactions were transformed into XL-Blue MRF′ (Stratagene) by electroporation and plasmids isolated from single colonies. Three mutations, […], V1047D and R1088D, were introduced into the LRP2 CR89 expression plasmid both singly and in combination using Stratagene QuikChange II XL reagents and the primers: […]
# as §1
# (§3) One premise of this work was that amino acids at A, C, A′ and C′ within the calcium-binding loops of a CR pair were key determinants of binding affinity for RAP and would be similarly important for binding of RAP variants. To test this idea, mutant LRP2 CR89 were prepared in which the native, non-canonical residues at these positions were sequentially substituted with the non-native, canonical residues. As defined above, the A, C, A′, C′ string for LRP2 CR89 is YVWR. Mutants included LRP2 CR89 Y1042W (WVWR), LRP2 CR89 V1047D (YDWR), LRP2 CR89 R1088D (YVWD), LRP2 CR89 V1047D R1088D (YDWD), LRP2 CR89 Y1042W V1047D R1088D (WDWD), LRP2 CR89 Y1042W V1047D (WDWR), LRP2 CR89 Y1042W R1088D (WVWD). Binding to both RAP d3 and MegaRAP1 d3 were measured for each LRP2 CR89 mutant by solid-phase assay. Only the YVWD mutant retained significant binding to MegaRAP1 d3, with an approximate 2-fold loss of affinity relative to LRP2 CR89 (FIG. 6 and Table 3). […] The A′ position in LRP2 CR89 is a tryptophan, the canonical residue for wild-type RAP d3 binding, and was not mutated in our studies.
# LRP2 CR89 V1047D (YDWR) = target: T1, LRP2 CR89 V1047D (YDWR); experiment: Solid phase binding assay, LRP2 CR89 mutant
# Description: as §2, §1, §3
# [1] = target: T6, LRP2 CR89 Y1042W V1047D (WDWR) (Homo sapiens, UniProt P98164, V1048D/Y1043W); experiment: Solid phase binding assay, LRP2 CR89 mutant
# T6 construct: two CR pairs from LRP2 (CR89, CR3435); made in house; host or cells: E. coli BL21(DE3) CodonPlus-RIPL, pET30(+)a
# T6 sequence (P98164 1025-1102 Y1043W/V1048D): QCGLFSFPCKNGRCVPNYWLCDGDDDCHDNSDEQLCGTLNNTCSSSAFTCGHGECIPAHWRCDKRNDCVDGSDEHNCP
# Description: as §2, §1, §3
# [2] = target: T2, LRP2 CR89 V1047D R1088D (YDWD); experiment: Solid phase binding assay, LRP2 CR89 mutant
# Description: as §2, §1, §3
# LRP2 CR89 Y1042W (WVWR) = target: T3, LRP2 CR89 Y1042W (WVWR); experiment: Solid phase binding assay, LRP2 CR89 mutant
# Description: as §2, §1, §3
binding relative to that for LRP1 CR3-5 (LRP2 CR34-36),loss of affinity relative to LRP2 CR89 (LRP2 CR89 R1088D (YVWD)) [fold],binding (in words) (LRP2 CR89 V1047D (YDWR)),binding (in words) [1],binding (in words) [2],binding (in words) (LRP2 CR89 Y1042W (WVWR)),Molecule
less than 5%,–,–,–,–,–,B1
–,~2,failed to bind measurably,failed to bind measurably,failed to bind measurably,prevent binding,B2
